This test addresses Drosophila melanogaster SERINC (Drosophila melanogaster). The test is described as follows: cryo-EM structure.

In general, stoichiometry N refers to the number of molecules, sites or subunits per partner or assembly.

As to “Drosophila melanogaster SERINC (natural protein)”, the stoichiometry N amounted to 6.

For the origin of these results see PMC6956856.
